How the values were obtained:
[1] = molecular target: T1, mature TGFα (R&D Systems, 239-A) (human, UniProt P01135 40-89); experiment: ELISA on immobilized TGFα (R&D Systems, 239-A)
[2] = molecular target: T1, mature TGFα (R&D Systems, 239-A); experiment: ELISA on immobilized mature TGFα, COS-7 supernatant
[3] = molecular target: T1, mature TGFα (R&D Systems, 239-A); experiment: ELISA on immobilized mature TGFα (R&D Systems, 239-A)

B1: EP19 monoclonal antibody (mouse hybridoma anti-EREG antibody) (antibody, V domains shown)
VH: EVQLQQSGPELEKPGASVKISCKASGYSFTGYNMNWVKQSNGKSLEWIGNIDPYYGAASYNQKFKGKATLTVDKSSSTAYMQLKSLTSEDSAVYYCARSQLPYWYFDVWGAGTTVTVSS
VL: DIVMTQSPSSLTVTAGEKVTMSCKSSQSLLNSGNQKNYLTWYQQKPGQPPKLLIYWASTRESGVPDRFTGSGSGTDFTLTISSVQAEDLAVYYCQNDYSYPYTFGGGTKLEIK
notes: Hybridoma antibody from WO 2008/047723; The variable region entries may include leader residues; also called EP19 antibody
[1]
  binding result: binds

B2: #2-20 mouse chimeric IgG2a recombinant antibody (#2-20 VH/VL with mouse IgG2a constant region) (antibody)
heavy: DVQLQESGPGLVKPSQSLSLTCTVTGYSITSDYAWNWIRLFPGNKLEWMGFINYSGNTSYNPSLKSRISITRDTSKNQFFLKLNSLTTDDTATYYCARGGLSRFPYWGQGTLVTVSAAKTTAPSVYPLAPVCGGTTGSSVTLGCLVKGYFPEPVTLTWNSGSLSSGVHTFPALLQSGLYTLSSSVTVTSNTWPSQTITCNVAHPASSTKVDKKIEPRVPITQNPCPPLKECPPCAAPDLLGGPSVFIFPPKIKDVLMISLSPMVTCVVVDVSEDDPDVQISWFVNNVEVHTAQTQTHREDYNSTLRVVSALPIQHQDWMSGKEFKCKVNNRALPSPIEKTISKPRGPVRAPQVYVLPPPAEEMTKKEFSLTCMITGFLPAEIAVDWTSNGRTEQNYKNTATVLDSDGSYFMYSKLRVQKSTWERGSLFACSVVHEGLHNHLTTKTISRSLGK
light: DIQMTQTTSSLSASLGDRVTISCRSSQDIRNYLNWYQQKPDGTVKLLIYYTSRSHSGVPSRFSGSGSGTDYSLTISNLEQEDIATYFCQQGNMFPFTFGGGTKLEIKRADAAPTVSIFPPSSEQLTSGGASVVCFLNNFYPKDINVKWKIDGSERQNGVLNSWTDQDSKDSTYSMSSTLTLTKDEYERHNSYTCEATHKTSTSPIVKSFNRNEC
notes: Transiently expressed in COS-7 and tested as culture supernatant; also called recombinant mouse chimeric IgG2a antibody; mouse IgG2a antibody
[2]
  binding result: binds

B3: mouse hybridoma anti-TGFα antibody #2-20 (antibody, V domains shown)
VH: DVQLQESGPGLVKPSQSLSLTCTVTGYSITSDYAWNWIRLFPGNKLEWMGFINYSGNTSYNPSLKSRISITRDTSKNQFFLKLNSLTTDDTATYYCARGGLSRFPYWGQGTLVTVSA
VL: DIQMTQTTSSLSASLGDRVTISCRSSQDIRNYLNWYQQKPDGTVKLLIYYTSRSHSGVPSRFSGSGSGTDYSLTISNLEQEDIATYFCQQGNMFPFTFGGGTKLEIK
notes: Mouse IgG purified from hybridoma supernatant; also called #2-20 antibody; mouse #2-20 antibody
[3]
  binding result: binds

B4: #2-20 recombinant human chimeric antibody (#2-20 VH/VL with human IgG1 constant region) (antibody)
heavy: not shown
light: DIQMTQTTSSLSASLGDRVTISCRSSQDIRNYLNWYQQKPDGTVKLLIYYTSRSHSGVPSRFSGSGSGTDYSLTISNLEQEDIATYFCQQGNMFPFTFGGGTKLEIKRTVAAPSVFIFPPSDEQLKSGTASVVCLLNNFYPREAKVQWKVDNALQSGNSQESVTEQDSKDSTYSLSSTLTLSKADYEKHKVYACEVTHQGLSSPVTKSFNRGEC
notes: Transiently expressed in COS-7 and tested as culture supernatant
[2]
  binding result: binds

From US20120141501A1 (Chugai, published 2012)
